According to PMC12109899, “Aptamer-Based Planar Electric Double-Layer Field-Effect Transistor: A Novel Approach for Sensitive Troponin I Sensing”:

Target: cardiac troponin I (cTnI, TnI) (UniProt P19429 2-210)
Test: fluorescence decrease of surface-immobilized FAM aptamer; aptamer on gold electrode; pH 7.4; 0.02x PBS stated for the chip rinse; aptamer immobilized at 24 °C for 24 h; binding temperature not given
Conditions: label: 3' FAM; single strand

cardiac troponin I (cTnI, TnI), sequence (P19429 2-210): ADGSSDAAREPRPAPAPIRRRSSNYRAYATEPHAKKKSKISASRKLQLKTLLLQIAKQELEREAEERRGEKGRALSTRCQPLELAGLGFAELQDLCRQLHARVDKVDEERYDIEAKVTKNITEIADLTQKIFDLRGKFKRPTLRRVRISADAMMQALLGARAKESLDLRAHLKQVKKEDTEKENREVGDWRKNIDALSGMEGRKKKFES

## CGTGCAGTACGCCAACCTTTCTCATGCGCTGCCCCTCTTA (ssDNA, 5' disulfide (S-S), reduced with TCEP to thiol; immobilized on gold) [Tro4 aptamer]
  binding result: binds
